This is an account of results in the nanobody polyreactivity screen of Harvey et al. (2022).

This series in a line: yeast display, Sf9 membrane polyspecificity reagent, FACS + sequencing; frameworks hold sequencing errors. The method in brief: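 Sorting gates, low and high (top ~1%), were placed on anti-HA fluorescence to track expression and on streptavidin fluorescence to track reagent binding. A clone's polyreactivity label is taken from the gate it came out of. The reagent was 10% biotinylated, detergent-solubilized Sf9 membrane, applied for 1 hour at 4 °C to galactose-induced yeast display cells.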
Take “QVQLVESGGGLVQAGGSLRLSCAASGRTFEIYAMGWYRQEPGKERELVAAITSGGSTYYADSVKGRFTISRDNAKNTVYLQMNSLKPEDTAVYYCNAYLYYDAHGVDYWGQGTQVTVSS”: the “polyreactivity (PSR sort gate)” value was “high polyreactivity”. For the sequence “QVQLVESGGGLVQAGGSLRLSCAASGRTFEPNDMGWYRQAPGKERELVAAISSSDGSTYYADSVKGRFTISRDNAKNTVYLQMNSLKPEDTALYYCAADAGYLYDWPYNYYYWGQGTQVTVSS”, the “polyreactivity (PSR sort gate)” value was “low polyreactivity”. Turning to “QVQLVESGGGLVQAGGSLRLSCAASGRTFEQNVMGWYRQAPGTERELVAAITTGGSTNYADSVKGRFTISRDNAKNTVYLQMNSLKPEDTAVYYCAADRYLGGDYDYWGQGTQVTVSS”, the “polyreactivity (PSR sort gate)” value is “low polyreactivity”. Turning to “QVQLVESGGGLVQAGGSLRLSCAASGRTFERYAMGWYRQAPGQERELVAGITGRGGRTYYADSVKGRFTISRDNAKNTVYLQRNSLKPEDTAVYYCNKDTWVIHNYRYDYWGQGTQVTVSS”, the “polyreactivity (PSR sort gate)” value was “low polyreactivity”. “QVQLVESGGGLVQAGGSLRLSCAASGRTFEYNAMGWYRQAPGKERELVATIRYSGTSTYADSVKGRFTISRDNAKNTVYFQMNSLKPEDTAVYYCAKQVRYYGYKYNYWGQGTQVTVSS”: the “polyreactivity (PSR sort gate)” value is “high polyreactivity”. With “QVQLVESGGGLVQAGGSLRLSCAASGRTFEYNDMGWYRQSPGKERELVAAISWRGTSTYYADSVKGRFTISRDNAKNTVYLQMNSLKPEDTAVYYCAADYSYSFYYAYYWGQGTQVTVSS”, the “polyreactivity (PSR sort gate)” value is given as “high polyreactivity”. As for “QVQLVESGGGLVQAGGSLRLSCAASGRTFEYNGMGWYSQAPGKEWELVAAITRGGSTYYADSVKGRFTISRDNAKNTVYLQMNSLKPEDTAVYYCAAVVGWSRYKWLEYWGQGTQVTVSS”, the “polyreactivity (PSR sort gate)” value is on record as “low polyreactivity”. “QVQLVESGGGLVQAGGSLRLSCAASGRTFFDYVMGWYRQAPGKERELVAAISTSGTSTYYADSVKGRFTISRDNAKNTVYLHMNSLKPEDTAVYYCAAGNYLYSYGYGYWGQGTQVTVSS”: the “polyreactivity (PSR sort gate)” value is on record as “high polyreactivity”. “QVQLVESGGGLVQAGGSLRLSCAASGRTFFENAKGWYRQAPGKEREFVAAISYNGGSTYYADSVKGRFTISRDNAKNTVYLQMNSLKPEDTAVYYCAADPNYGYDYWGQGTQVTVSS”: the “polyreactivity (PSR sort gate)” value is given as “low polyreactivity”.

“QVQLVESGGGLVQAGGSLRLSCAASGRTFFFNAMGWYRQAPGKERELVARITWSGGSTYYADSVKGRFTISRDNAKNTVYLQMNSLKPEDTAVYYCNTRRFPYDGIEHDYWGQGTQVTVSS”: the “polyreactivity (PSR sort gate)” value is recorded as “low polyreactivity”. As for “QVQLVESGGGLVQAGGSLRLSCAASGRTFFGNAKGWYRQAPGKERELVAAISWRGGSTYYADSVKGRFTISRDNAKKTVYLQMNSLKPEDTAVYYCATGRYGYGYWGQGTQVTVSS”, the entry is “high polyreactivity”. As for “QVQLVESGGGLVQAGGSLRLSCAASGRTFFGNAMGWYRQAPGKERELVAVISQGGGSTYYADSVKGRFTISRDNAKNTVYLQMNSLKPEDTAVYYCAKRYPHFGSGQLGGTYNYWGQGTQVTVSS”, the entry is “low polyreactivity”. As to “QVQLVESGGGLVQAGGSLRLSCAASGRTFFGYAMGWCRQARGKEREFVAAISGSGGSTYYADSVKGRFTISRDYAKNTVYFKMNSLKPEDTAVYYCNAEYWGEYYYFGQGTQVTVSS”, the “polyreactivity (PSR sort gate)” value is reported as “low polyreactivity”. On to “QVQLVESGGGLVQAGGSLRLSCAASGRTFFGYAMGWYRQAPGKERELVAAITTSGGSTYYADSVKGRFTISRDNAKNTVYLQMNSLKPEDTAVYYCAARAYYGYYYWGQGTQVTVSS”, for which the “polyreactivity (PSR sort gate)” value is listed as “low polyreactivity”. Turning to “QVQLVESGGGLVQAGGSLRLSCAASGRTFFIYAMGWYRQAPGKERELVAAISNGGSTNYADSVKGRFTISRDYAKNTVYLQMISLKPEDTAVYYCAAQYIGNLRGVFHYEFDWGQGTQVTVSS”, the “polyreactivity (PSR sort gate)” value is recorded as “high polyreactivity”. Regarding “QVQLVESGGGLVQAGGSLRLSCAASGRTFFLYAMGWYRQAPGKERELVAAITDGGSITYYADSVKGRFTISRDNAKNTVYLQMNSLKPEDTAVYYCAAEYWHVYDGDYWGYDYWGQGTQVTVSS”, the “polyreactivity (PSR sort gate)” value is recorded as “high polyreactivity”. As for “QVQLVESGGGLVQAGGSLRLSCAASGRTFFPYAMGWYRQAPAKEREFVAAITKTDDSTYYADSVKGRFTISRDNAKNTVYLQMNSLKPEDTAVYYCNAGDTQIRFYYWGQGTQVTVSS”, the entry is “low polyreactivity”; as for “QVQLVESGGGLVQAGGSLRLSCAASGRTFFPYAMGWYRQAPGKEREFVAAITKTDDSTYYADSVKGRFTISRDTSKNTVYLQMNSLKPEDTAVYYCNAGDTQMRFYYGGQGTQVTVSS”, “low polyreactivity”.

As for “QVQLVESGGGLVQAGGSLRLSCAASGRTFFPYAMGWYRQAPGKERELVAAISFRGGRTYYADSVKGRFTISRDNAKNTVYLQMNSLKPEDTAVYYCNKLGTRVYEMDYWGQGTQVTVSS”, the “polyreactivity (PSR sort gate)” value is listed as “high polyreactivity”.

With “QVQLVESGGGLVQAGGSLRLSCAASGRTFFQYAMGWYRQPPGKARELVAAIRWSDSTYYADSVKGRFTISRDNAKNTVYLQMNSLKPADTAVYYCAAPRVSQYSTKKYDYWGQGTQVTVSS”, the “polyreactivity (PSR sort gate)” value is “low polyreactivity”. Consider “QVQLVESGGGLVQAGGSLRLSCAASGRTFFRYAMGWYRQAPGKERELVAAISSRGGSTYYADSVKGRFTISRDNAKNTVYLQMNSLKPEDTAVYYCNAAAFINFILYDYWGQGTQVTVSS”, for which the “polyreactivity (PSR sort gate)” value was “high polyreactivity”. Next, “QVQLVESGGGLVQAGGSLRLSCAASGRTFFRYAMGWYRQAPGKERELVADISKGGGSTYYADSVKGRFTISRDNAKNTVYLQMNSLKPEDTAVYYCAADQYYERDNFGAERYYWGQGTQVTVSS”: “high polyreactivity”; “QVQLVESGGGLVQAGGSLRLSCAASGRTFFSFNAMGWYRQAPGKERELVAAIDGDGGITYYADSVKGRFTISRDNAKNTVYLQMNSLKPEDTAVYYCAAETLFSYAGEDDYWGQGTQVTVSS”: “low polyreactivity”. For “QVQLVESGGGLVQAGGSLRLSCAASGRTFFSYTMGWSRQAPGKERELVAAISDSDGRTYYADSVKGRFTISRDNAKNTVYLQMNSLKPEDTAVYYCAAVPDKDWSRVRRYLFEDIYWGQGTQVTVSS”, the “polyreactivity (PSR sort gate)” value is recorded as “low polyreactivity”. As to “QVQLVESGGGLVQAGGSLRLSCAASGRTFFTNAMGWYRQAPGKERELVASINSGGNTTYADSVKGRFTISRDNAKNTVYIQMNSLKPEDTAVYYCAAVRSAQRWRRYYYWGQGTQVTVSS”, the “polyreactivity (PSR sort gate)” value was “low polyreactivity”. As for “QVQLVESGGGLVQAGGSLRLSCAASGRTFFTNTMGWYRQAPGKERELVAAITRSGASTYYADSVKGRFTISRDNAKNTVYLQMNSLKPEDTAVYYCAAQRSKYSTVGKYGYWGQGTQVTVSS”, the “polyreactivity (PSR sort gate)” value is recorded as “high polyreactivity”. For the sequence “QVQLVESGGGLVQAGGSLRLSCAASGRTFFTYAMGWYRQAPGKERELVASITSSGVSTYYADSVKGRFTISRDNAKNTVYLQINRLKPEDTAVYHCNTRYPYYWPIYGYWGQGTQVTVSS”, the “polyreactivity (PSR sort gate)” value is recorded as “high polyreactivity”. As for “QVQLVESGGGLVQAGGSLRLSCAASGRTFFWYVMGWYRKAPGKERELVATISYGGITYYADSVKGRFTISRDNAKNTVYLQMNSLKPEDTALYYCAAKPSRSLYYYWGQGTQVTVSS”, the “polyreactivity (PSR sort gate)” value was “high polyreactivity”. Consider “QVQLVESGGGLVQAGGSLRLSCAASGRTFFYNAMGWYRQAPGKERELVAAISYSGGSTYYADSVKGRFTISRDNAKNTVYLQMNSLKPEDTAVYYCAAYHYARYRTSAGNYYWGQGTQVTVSS”, for which the “polyreactivity (PSR sort gate)” value is reported as “high polyreactivity”. Take “QVQLVESGGGLVQAGGSLRLSCAASGRTFFYYAMGWYRQAPGKERELVAAISGRGGSTYYADSVKGRFTISRDNAKNTVYLQMNSLKPVDTAVYFCAAQSPFRRYTSPWYDYWGQGTQVTVSS”: the “polyreactivity (PSR sort gate)” value is listed as “high polyreactivity”. Consider “QVQLVESGGGLVQAGGSLRLSCAASGRTFGANAMGWYRQAPGKERELVATIRRGGSTYYADSVKGRFTISRDNAKNTVYLLMNSLKPEDTAVYYCATQYHSYAKEYDYWGQGTQVTVSS”, for which the “polyreactivity (PSR sort gate)” value is given as “low polyreactivity”. “QVQLVESGGGLVQAGGSLRLSCAASGRTFGAYTMGWYRQAPGKERELFAAINWSGGDTYYADSVKGRFTISRDNAKNTVYLQMNSLKPEDTAVYYCNADFGFGYVSLLYEYWGQGTQVTVSS”: the “polyreactivity (PSR sort gate)” value is listed as “low polyreactivity”. As for “QVQLVESGGGLVQAGGSLRLSCAASGRTFGDYAMGWYRQAPGKERELVAAITIGGSTYYADSVKGRFTISRDNAKNTVYLQMNSLKPEDTAVYYCAATTYSIPSRYDSWGQGTQVTVSS”, the entry is “low polyreactivity”; as for “QVQLVESGGGLVQAGGSLRLSCAASGRTFGDYDMGWYRQAPGKERELVAAITSDGTTYYADSVKGRFTISRDNAKNTVYLQMNSLKPEDTAVYYCAADYWYVSWYDYWGQGTQVTVSS”, “low polyreactivity”. For the sequence “QVQLVESGGGLVQAGGSLRLSCAASGRTFGEYAMGWYRQAPGKERELVADITNGSRTYYADSVKGRFTISRDNAKNTVYLQMNSLKPEDTAVYYCAADWWKEVDYWGQGTHVTVSS”, the “polyreactivity (PSR sort gate)” value was “low polyreactivity”. “QVQLVESGGGLVQAGGSLRLSCAASGRTFGFYAMGWYRQAPGKERELVAAISKRGGSTYYADSVKGRFTISRDNAKNTVYLQMNSLKPEDTAVYYCAAVGYYLVKFDYWGQGTQVTVSS”: the “polyreactivity (PSR sort gate)” value is “high polyreactivity”. “QVQLVESGGGLVQAGGSLRLSCAASGRTFGGNAMGWYRQAPGKERELVAAISARAGSTYYADSVKGRFTISRDNAKNTVYLQMNSLKPEDTAVYYCAARRYAYTGGYWGQGTQVTVSS”: the “polyreactivity (PSR sort gate)” value is “high polyreactivity”. Next, “QVQLVESGGGLVQAGGSLRLSCAASGRTFGGNAMGWYRQAPGKERELVAAITWRGGSTYYADSVKGRFTISRDNAKNTVYLQMNSLKPEDTAVYYCNAVRTGKYVKYYRSIFDYWGQGTQVTVSS”: “high polyreactivity”. With “QVQLVESGGGLVQAGGSLRLSCAASGRTFGGNAMGWYRQAPGKERELVAGINISGGSTNYADTVKGRFTISRDNAKNTVYLQMNSLKPEDTAVYYCNADTAVYAWDDDYWGQGTQVTVSS”, the “polyreactivity (PSR sort gate)” value is on record as “low polyreactivity”. As for “QVQLVESGGGLVQAGGSLRLSCAASGRTFGGNAMGWYRQAPGKERELVATIRSSSSTNYADSVKGRFTISRDNAKNTVYLQMNSLKPEDTAVYYCARRSQRGIYSMYYWGQGSQVTVSS”, the “polyreactivity (PSR sort gate)” value is on record as “low polyreactivity”.

For “QVQLVESGGGLVQAGGSLRLSCAASGRTFGGNAMGWYRQAPGKERELVAVIRSTGGSTYYADSVKGRFTISRDTAKNTVYVQMNSLKPEDTAVYYCAKGRGRNFGYWGQGTQVTVSS”, the “polyreactivity (PSR sort gate)” value is “high polyreactivity”.
